Measured values as given in patent US20250257099A1 (priority 2022, published 2025).

Legend:
[1] = molecular target: MERS-CoV spike (S) protein (MERS-CoV) (UniProt K9N5Q8); assay: cell-based or functional assay
[2] = molecular target: SARS-CoV-2 spike (S) glycoprotein (SARS-CoV-2) (UniProt P0DTC2); assay: cell-based or functional assay

**Q.** What does the source list for “MERS-CoV C-lipopeptide (MERS-CoV S HRC residues 1251-1286, cholesterol-conjugated)”?
**A.** IC50, plaque-neutralization test, MERS-CoV infection of Vero E6 cells [1]: < 8 nM; IC50, plaque-neutralization test, SARS-CoV-2 infection of Vero E6 cells [2]: 90 nM
